Bridges are numbered along the chain shown (N, C = ends). Where no end group is shown, it is not given here.
Target: human type recombinant neutral endopeptidase (hNEP, manufactured by R&D Systems, Inc., U.S.A.) (human, UniProt P08473 52-750)
Experiment: cell-based or functional assay

human type recombinant neutral endopeptidase (hNEP, manufactured by R&D Systems, Inc., U.S.A.), sequence (P08473 52-750 limits assumed): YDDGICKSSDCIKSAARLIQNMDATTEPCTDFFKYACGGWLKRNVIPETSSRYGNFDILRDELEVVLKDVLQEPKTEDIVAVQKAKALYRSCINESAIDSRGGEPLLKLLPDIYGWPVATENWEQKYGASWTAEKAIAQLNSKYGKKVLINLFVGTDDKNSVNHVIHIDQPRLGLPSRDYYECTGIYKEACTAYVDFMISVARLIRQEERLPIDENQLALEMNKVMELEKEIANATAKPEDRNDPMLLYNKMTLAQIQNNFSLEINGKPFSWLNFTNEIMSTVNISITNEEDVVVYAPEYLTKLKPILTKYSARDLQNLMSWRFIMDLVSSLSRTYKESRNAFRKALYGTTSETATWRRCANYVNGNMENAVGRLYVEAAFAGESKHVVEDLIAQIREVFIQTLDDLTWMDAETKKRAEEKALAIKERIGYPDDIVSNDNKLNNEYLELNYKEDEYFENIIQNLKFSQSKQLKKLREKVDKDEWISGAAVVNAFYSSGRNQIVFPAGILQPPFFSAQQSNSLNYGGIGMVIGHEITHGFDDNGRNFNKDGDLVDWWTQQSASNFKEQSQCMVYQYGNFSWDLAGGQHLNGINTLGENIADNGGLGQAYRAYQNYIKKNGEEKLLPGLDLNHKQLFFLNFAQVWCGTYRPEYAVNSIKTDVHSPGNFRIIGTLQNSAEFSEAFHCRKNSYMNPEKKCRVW

Binder | Residual Rate (%) of the unchanged peptide after 1 hour at 37° C. with hNEP (HPLC) [%]
GLSKGCFGLKLDRIGSMSGLGC (disulfide 6-22) [Native CNP-22] | 16.7
RPQLKAPPKKSEKRQQVCFGLKLDRIGSMSGLGC (disulfide 18-34 (inferred)) [Chimeric CNP (A)] | 84.3
CFGLKLDRIGSMSGLGCVQQRKESKKPPAKLQPR (disulfide 1-17 (inferred)) [Chimeric CNP (B)] | 83.8

— US20100305031A1 (Daiichi Sankyo, published 2010)
